Results: patent publication US20090197330A1 (BIOMEDICS, published 2009)

T1: human CD20 antigen (human, UniProt P11836 1-297)
T1 construct: whole, on cells; also called CD20/CHO cells; CD20 on Raji cells
T1 sequence (looked up): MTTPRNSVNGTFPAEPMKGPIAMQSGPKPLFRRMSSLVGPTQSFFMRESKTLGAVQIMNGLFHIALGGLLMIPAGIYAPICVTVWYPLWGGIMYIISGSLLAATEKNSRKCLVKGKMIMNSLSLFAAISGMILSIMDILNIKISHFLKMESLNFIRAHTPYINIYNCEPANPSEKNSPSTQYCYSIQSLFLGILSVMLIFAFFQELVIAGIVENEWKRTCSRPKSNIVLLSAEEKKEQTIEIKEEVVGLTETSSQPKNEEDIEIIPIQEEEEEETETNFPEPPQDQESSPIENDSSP


Experiments:
human CD20 antigen [1] = biological target: T1, human CD20 antigen; experiment: SB cell-ELISA, antibody at 3 ng/ml
human CD20 antigen [2] = biological target: T1, human CD20 antigen; experiment: Raji cell-ELISA, antibody at 3 ng/ml
human CD20 antigen [3] = biological target: T1, human CD20 antigen; experiment: CD20/CHO cell-ELISA, antibody at 3 ng/ml
human CD20 antigen [4] = biological target: T1, human CD20 antigen; experiment: CD20/CHO cell-ELISA, antibody at 10 ng/ml
human CD20 antigen [5] = biological target: T1, human CD20 antigen; experiment: CD20/CHO cell-ELISA, antibody at 32 ng/ml
human CD20 antigen [6] = biological target: T1, human CD20 antigen; experiment: CD20/CHO cell-ELISA, antibody at 100 ng/ml
human CD20 antigen [7] = biological target: T1, human CD20 antigen; experiment: SB cell-ELISA, antibody at 10 ng/ml
Text: (§1) Several murine anti-CD20 monoclonal antibodies and 2B8 were reacted by using 96-well plates to which the SB cells, Raji cells, CD20/CHO cells and CD20 CHO parent cell line were adhered.

human CD20 antigen [8] = biological target: T1, human CD20 antigen; experiment: SB cell-ELISA, antibody at 32 ng/ml
Text: as §1

human CD20 antigen [9] = biological target: T1, human CD20 antigen; experiment: SB cell-ELISA, antibody at 100 ng/ml
Text: as §1

human CD20 antigen [10] = biological target: T1, human CD20 antigen; experiment: SB cell-ELISA, antibody at 320 ng/ml
Text: as §1

human CD20 antigen [11] = biological target: T1, human CD20 antigen; experiment: Raji cell-ELISA, antibody at 10 ng/ml
Text: as §1

human CD20 antigen [12] = biological target: T1, human CD20 antigen; experiment: Raji cell-ELISA, antibody at 32 ng/ml
Text: as §1

human CD20 antigen [13] = biological target: T1, human CD20 antigen; experiment: SB cell-ELISA, antibody at 1000 ng/ml
Text: as §1

human CD20 antigen [14] = biological target: T1, human CD20 antigen; experiment: Raji cell-ELISA, antibody at 100 ng/ml
Text: as §1

human CD20 antigen [15] = biological target: T1, human CD20 antigen; experiment: Raji cell-ELISA, antibody at 320 ng/ml
Text: as §1

human CD20 antigen [16] = biological target: T1, human CD20 antigen; experiment: Raji cell-ELISA, antibody at 1000 ng/ml
Text: as §1

human CD20 antigen [17] = biological target: T1, human CD20 antigen; experiment: CD20/CHO cell-ELISA, antibody at 320 ng/ml
Text: as §1

human CD20 antigen [18] = biological target: T1, human CD20 antigen; experiment: CD20/CHO cell-ELISA, antibody at 1000 ng/ml
Text: as §1

human CD20 antigen [19] = biological target: T1, human CD20 antigen; experiment: SB cell-ELISA, negative control, concentration not clear
human CD20 antigen [20] = biological target: T1, human CD20 antigen; experiment: Raji cell-ELISA, negative control, concentration not clear
human CD20 antigen [21] = biological target: T1, human CD20 antigen; experiment: CD20/CHO cell-ELISA, negative control, concentration not clear
human CD20 antigen [22] = biological target: T1, human CD20 antigen; experiment: CD20/CHO cell-ELISA, antibody at 3 ng/ml; remark: listed apart in the source
Text: as §1

human CD20 antigen [23] = biological target: T1, human CD20 antigen; experiment: CD20/CHO cell-ELISA, antibody at 10 ng/ml; remark: listed apart in the source
Text: as §1

human CD20 antigen [24] = biological target: T1, human CD20 antigen; experiment: CD20/CHO cell-ELISA, antibody at 32 ng/ml; remark: listed apart in the source
Text: as §1

human CD20 antigen [25] = biological target: T1, human CD20 antigen; experiment: CD20/CHO cell-ELISA, antibody at 100 ng/ml; remark: listed apart in the source
Text: as §1

Molecule | A492 (human CD20 antigen [7]) | A492 (human CD20 antigen [8]) | A492 (human CD20 antigen [9]) | A492 (human CD20 antigen [10]) | A492 (human CD20 antigen [11]) | A492 (human CD20 antigen [12]) | A492 (human CD20 antigen [13]) | A492 (human CD20 antigen [14]) | A492 (human CD20 antigen [15]) | A492 (human CD20 antigen [16]) | A492 (human CD20 antigen [17]) | A492 (human CD20 antigen [18]) | A492 (human CD20 antigen [22]) | A492 (human CD20 antigen [23]) | A492 (human CD20 antigen [24]) | A492 (human CD20 antigen [25]) | other results
2B8 (antibody) | 0.037 A492 | 0.038 A492 | 0.045 A492 | 0.091 A492 | 0.034 A492 | 0.038 A492 | 0.337 A492 | 0.055 A492 | 0.121 A492 | 0.329 A492 | 1.66 A492 | 2.29 A492 |  |  |  |  | A492 (human CD20 antigen [1]): 0.053 A492; A492 (human CD20 antigen [2]): 0.046 A492; A492 (human CD20 antigen [3]): 0.089 A492; A492 (human CD20 antigen [4]): 0.174 A492; A492 (human CD20 antigen [5]): 0.561 A492; A492 (human CD20 antigen [6]): 1.09 A492
NC |  |  |  |  |  |  |  |  |  |  |  |  |  |  |  |  | A492 (human CD20 antigen [19]): 0.028 A492; A492 (human CD20 antigen [20]): 0.035 A492; A492 (human CD20 antigen [21]): 0.07 A492
murine anti-CD20 monoclonal antibody 1K1228 (antibody, V domains shown, Mouse monoclonal antibody from a hybridoma, purified on protein G) VH: QVQLQQPGAELVKPGASVKVSCKASGFTFTSYNLHWVKQTPGQGLVWIGAIYPGNGDTSYNQKFRGKATLTADISSSTAYMQLSSLTSEDSAVYYCARYYYGYDAMDYWGQGTSVTVSS VL: EIILTQSPTTMAASPGEKITITCSASSSISSYYLRWYQQKPGFSPKVLIYRTSNLASGVPARFSGSGSGTSYSLTIGTMEAEDVATYYCQQGNTVPLTFGSGTKLEIK | 0.082 A492 | 0.192 A492 | 0.452 A492 | 0.931 A492 | 0.148 A492 | 0.326 A492 | 1.26 A492 | 0.678 A492 | 1.17 A492 | 1.68 A492 | 2.7 A492 | 3.06 A492 | 0.265 A492 | 0.572 A492 | 1.27 A492 | 2.09 A492 | 

Continued, in another order:

A492 (human CD20 antigen [7]) | A492 (human CD20 antigen [8]) | A492 (human CD20 antigen [9]) | A492 (human CD20 antigen [10]) | A492 (human CD20 antigen [11]) | A492 (human CD20 antigen [12]) | A492 (human CD20 antigen [13]) | A492 (human CD20 antigen [14]) | A492 (human CD20 antigen [15]) | A492 (human CD20 antigen [16]) | A492 (human CD20 antigen [17]) | A492 (human CD20 antigen [18]) | A492 (human CD20 antigen [22]) | A492 (human CD20 antigen [23]) | A492 (human CD20 antigen [24]) | A492 (human CD20 antigen [25]) | Molecule | other results
0.066 A492 | 0.095 A492 | 0.152 A492 | 0.4 A492 | 0.061 A492 | 0.102 A492 | 0.763 A492 | 0.214 A492 | 0.525 A492 | 1.23 A492 | 1.57 A492 | 1.88 A492 | 0.174 A492 | 0.389 A492 | 0.824 A492 | 1.49 A492 | murine anti-CD20 monoclonal antibody 1K1402 (antibody, V domains shown, Mouse monoclonal antibody from a hybridoma) VH: QVQLQQPGAELVKPGASVKMSCKASGFTFTSYNMHWVKQTPGQGLEWIGGIYPGNGDTSYNQKFKGKATLTADKSSSTAYMQLSSLTSEDSAVYYCARFYYYGSMGAMDYWGQGTSVTVSS VL: QIVLSQSPAILSASPGEKVTMTCRASSSVSYMHWYQQKPGSSPKPWIYATSNLASGVPARFSGSGSGTSYSLTITRVEAEDAATYYCQQWTFNPPTFGAGTKLELK | 
0.036 A492 | 0.039 A492 | 0.071 A492 | 0.147 A492 | 0.046 A492 | 0.057 A492 | 0.403 A492 | 0.121 A492 | 0.277 A492 | 0.748 A492 | 1.33 A492 | 2.23 A492 | 0.068 A492 | 0.105 A492 | 0.238 A492 | 0.842 A492 | murine anti-CD20 monoclonal antibody 1K1422 (antibody, V domains shown, Mouse monoclonal antibody from a hybridoma) VH: QVQLQQPGAELVKPGASVKMSCRASGYTFTNYNMHWIKQTPGQGLEWIGAIYPGSGDTSYNRKFKGKATLTADTSSSTAYMQFSSLTSADSAVYYCARFTYYYGGTYGAMDYWGQGTSVTVSL VL: QIVLTQSPPIMSASLGEEITLTCSASSRVSYMLWYQQKSGTSPKLLIYSTSNLASGVPSRFSGSGSGTFYSLTISSVEAEDAADYYCHQWTSNPCTFGGGTKLEIK | 
